Assay results as given in PMC8809517, “Cofactor-independent RNA editing by a synthetic S-type PPR protein”.

T1: GFP-9S library array, motif 4 ND N98L;D124W (synthetic construct, N98L;D124W)
T1 chain: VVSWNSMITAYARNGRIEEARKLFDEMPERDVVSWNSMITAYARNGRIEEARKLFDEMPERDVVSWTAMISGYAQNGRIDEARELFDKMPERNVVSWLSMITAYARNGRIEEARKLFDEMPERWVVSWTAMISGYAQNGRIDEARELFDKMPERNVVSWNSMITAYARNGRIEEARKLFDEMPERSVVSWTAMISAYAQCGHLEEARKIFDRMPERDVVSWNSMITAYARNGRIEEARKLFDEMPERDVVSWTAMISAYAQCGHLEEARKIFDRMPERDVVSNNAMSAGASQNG

T2: GFP-9S library array, motif 4 ND N98C;D124M (synthetic construct, N98C;D124M)
T2 chain: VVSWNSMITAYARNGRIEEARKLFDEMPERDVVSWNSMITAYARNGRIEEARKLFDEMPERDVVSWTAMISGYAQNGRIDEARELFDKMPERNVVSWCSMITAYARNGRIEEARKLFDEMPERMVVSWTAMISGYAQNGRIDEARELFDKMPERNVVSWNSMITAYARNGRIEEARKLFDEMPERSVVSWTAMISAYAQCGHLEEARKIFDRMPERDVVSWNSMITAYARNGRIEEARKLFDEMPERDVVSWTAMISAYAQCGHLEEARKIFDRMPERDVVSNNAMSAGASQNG

T3: GFP-9S library array, motif 4 ND N98L;D124A (synthetic construct, N98L;D124A)
T3 chain: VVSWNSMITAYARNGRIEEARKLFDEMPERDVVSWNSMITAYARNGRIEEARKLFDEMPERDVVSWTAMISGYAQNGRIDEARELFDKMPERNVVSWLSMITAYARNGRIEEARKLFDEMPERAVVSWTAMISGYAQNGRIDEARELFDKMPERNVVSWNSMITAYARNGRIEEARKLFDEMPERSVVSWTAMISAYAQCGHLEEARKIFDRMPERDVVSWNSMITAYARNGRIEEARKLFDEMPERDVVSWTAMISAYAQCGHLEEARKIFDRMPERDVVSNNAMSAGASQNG

T4: GFP-9S library array, motif 4 ND N98H (synthetic construct, N98H)
T4 chain: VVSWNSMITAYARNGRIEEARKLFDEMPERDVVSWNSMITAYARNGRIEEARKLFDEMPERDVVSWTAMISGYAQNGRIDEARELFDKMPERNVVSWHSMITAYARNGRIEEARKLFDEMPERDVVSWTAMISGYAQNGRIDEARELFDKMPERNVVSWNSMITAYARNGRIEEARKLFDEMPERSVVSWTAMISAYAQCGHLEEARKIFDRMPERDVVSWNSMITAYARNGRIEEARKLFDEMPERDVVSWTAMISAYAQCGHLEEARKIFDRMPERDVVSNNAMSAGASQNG

T5: GFP-9S library array, motif 4 ND N98I;D124K (synthetic construct, N98I;D124K)
T5 chain: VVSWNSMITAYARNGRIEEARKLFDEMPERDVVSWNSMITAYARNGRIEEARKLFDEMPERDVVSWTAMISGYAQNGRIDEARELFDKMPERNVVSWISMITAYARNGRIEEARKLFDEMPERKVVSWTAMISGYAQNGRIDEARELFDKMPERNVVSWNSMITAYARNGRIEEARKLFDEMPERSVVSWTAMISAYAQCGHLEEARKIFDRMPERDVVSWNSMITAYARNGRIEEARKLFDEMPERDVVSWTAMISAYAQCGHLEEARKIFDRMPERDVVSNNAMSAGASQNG


How the values were obtained:
Experiment in all cases: high-throughput RNA pulldown from lysate on Ni-NTA beads; HRP: 50 mM Tris pH 8, 150 mM NaCl, 1 mM beta-mercaptoethanol, 50 ug/ml BSA, 3 ug/ml yeast RNA, 0.5% heparin; ITC and FP: Tris pH 8, 200 mM KCl, 5% glycerol; MST: 50 mM Tris pH 8, 200 mM NaCl, 1 mM DTT, BSA, heparin, 0.05% Tween 20
Settings in all cases: tags: N-terminal His-eGFP
[1] = biological target: T1, GFP-9S library array, motif 4 ND …
[2] = biological target: T2, GFP-9S library array, motif 4 ND …
[3] = biological target: T3, GFP-9S library array, motif 4 ND …
[4] = biological target: T4, GFP-9S library array, motif 4 ND N98H
[5] = biological target: T5, GFP-9S library array, motif 4 ND …

Row | Binder | Kd ([1]; label: 5' Cy5) [nM] | Kd ([2]; label: 5' Cy5) [nM] | Kd ([3]; label: 5' Cy5) [nM] | Kd ([4]; label: 5' Cy5) [nM] | Kd ([5]; label: 5' Cy5) [nM] | Kd ([1]; label: 5' IRDye 800CW) [nM] | Kd ([2]; label: 5' IRDye 800CW) [nM] | Kd ([3]; label: 5' IRDye 800CW) [nM] | Kd ([4]; label: 5' IRDye 800CW) [nM] | Kd ([5]; label: 5' IRDye 800CW) [nM]
1 | AUUAGACGUGA (ssRNA) [Cy5-rpoA-G] | 99.9 | 113 | 71.4 | 26.5 | 121 |  |  |  |  | 
2 | AUUAAACGUGA (ssRNA) [IR-rpoA-A] |  |  |  |  |  | 247 | 266 | 90.9 | 465 | 197
3 | AUUACACGUGA (ssRNA) [Cy5-rpoA] | 111 | 90.5 | 47.4 | 144 | 131 |  |  |  |  | 
4 | AUUAUACGUGA (ssRNA) [IR-rpoA-U] |  |  |  |  |  | 248 | 179 | 43.4 | 65.7 | 183
